Molecular target: aggrecan
Assay: solid-phase binding assay: aggrecan-coated wells, 10 ng/well IGFBP-2, detected with 125I-IGF-I

reduction in binding (against native IGFBP-2): 75%
Substance: HBD-IGFBP-2 mutant (179PKKLRP184 mutated to 179PNNLAP184) (from UniProt P18065 37-325)

Reference: patent publication US20080286287A1
